# Data published in PMC8754640.
# Key:
# [1] = biological target: His-PABP WT-Flag (Flag-PABP) (UniProt P11940 2-636); assay: EMSA
# [2] = biological target: His-PABP 4EA-Flag (Flag-PABP 4EA) (UniProt P11940 2-636, E178A;E180A;E182A;E189A); assay: EMSA
# Sequence of His-PABP 4EA-Flag (Flag-PABP 4EA) (P11940 2-636 E178A/E180A/E182A/E189A): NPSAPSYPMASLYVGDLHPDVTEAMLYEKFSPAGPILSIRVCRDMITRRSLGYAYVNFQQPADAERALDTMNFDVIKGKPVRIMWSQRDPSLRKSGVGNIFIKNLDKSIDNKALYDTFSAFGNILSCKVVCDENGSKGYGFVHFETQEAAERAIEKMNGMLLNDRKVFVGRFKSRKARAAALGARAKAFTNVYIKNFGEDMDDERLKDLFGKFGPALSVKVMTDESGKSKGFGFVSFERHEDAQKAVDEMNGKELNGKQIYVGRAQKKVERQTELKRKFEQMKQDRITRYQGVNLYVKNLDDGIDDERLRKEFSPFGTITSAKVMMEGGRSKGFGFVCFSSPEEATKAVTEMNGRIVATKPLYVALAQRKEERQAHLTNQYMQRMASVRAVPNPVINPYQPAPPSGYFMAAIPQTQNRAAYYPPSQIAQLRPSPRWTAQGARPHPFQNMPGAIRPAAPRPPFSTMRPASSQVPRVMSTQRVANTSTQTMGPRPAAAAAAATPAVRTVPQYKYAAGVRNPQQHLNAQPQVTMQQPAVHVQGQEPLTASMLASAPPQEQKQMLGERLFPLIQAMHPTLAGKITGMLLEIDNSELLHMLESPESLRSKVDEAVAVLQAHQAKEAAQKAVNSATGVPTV
# Sequence of His-PABP WT-Flag (Flag-PABP) (P11940 2-636): as the sequence (P11940 2-636 E178A/E180A/E182A/E189A) above, with A177E, A179E, A181E, A188E counted along it
binder,measurement,setting,value
AAAAAAAAAAAAAAAAAAAAAAAAA (ssRNA) [poly(A)25],Kd,[1],~0.5 nM
same,Kd,[2],~2.2 nM
